Assay results from US20240270845A1 (ZELARION MALTA, published 2024).

T1: Recombinant truncated human CD2 (human, UniProt P06729 25-209, limits assumed)
T1 construct: Bought; also called LFA2
T1 sequence (looked up): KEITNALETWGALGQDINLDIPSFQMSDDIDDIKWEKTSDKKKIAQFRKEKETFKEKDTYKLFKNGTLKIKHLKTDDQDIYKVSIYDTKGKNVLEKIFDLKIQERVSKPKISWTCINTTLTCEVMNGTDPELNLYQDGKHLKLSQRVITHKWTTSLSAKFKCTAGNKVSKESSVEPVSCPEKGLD


Target: T1, Recombinant truncated human CD2
Experiment: SPR (Biacore T200), IgG amine-coupled to CM5 chip, CD2 injected up to 5 nM, two-state model, 25 °C
Experimental: All interaction experiments were performed at 25° C. Recombinant truncated human CD2 (Sino Biological, Beijing, China) was diluted in two-fold dilution series with the highest concentration being 5 nM and injected for 180 seconds over immobilized IgG. After 15 minutes of dissociation, the sensor chip was regenerated by 30 seconds injection of 10 mM glycine pH 1.7. Sensorgrams from reference surfaces and blank injections were subtracted from the raw data prior to data analysis. A two-state (induced fit) interaction model was fitted to the data using T200 evaluation software v3.0 (Cytiva Life Sciences/Biacore, Uppsala, Sweden) to determine kinetic rate constants and affinities.

| Kd [nM] | Binder |
| --- | --- |
| 1.2 | Siplizumab (humanized anti-CD2 IgG1κ) (antibody, V domains shown, also called MEDI-507; anti-CD2 Ab1) VH: QVQLVQSGAEVQRPGASVKVSCKASGYIFTEYYMYWVRQAPGQGLELVGRIDPEDGSIDYVEKFKKKVTLTADTSSSTAYMELSSLTSDDTAVYYCARGKFNYRFAYWGQGTLVTVSS VL: DVVMTQSPPSLLVTLGQPASISCRSSQSLLHSSGNTYLNWLLQRPGQSPQPLIYLVSKLESGVPDRFSGSGSGTDFTLKISGVEAEDVGVYYCMQFTHYPYTFGQGTKLEIK |
| 1.4 | CD2-binding molecule 4 (FcS anti-CD2 IgG4) (antibody, V domains shown, Standard IgG4 framework with S228P, L235E, P329G; made in CHO-K1 cells) VH: QVQLVQSGAEVQRPGASVKVSCKASGYIFTEYYMYWVRQAPGQGLELVGRIDPEDGSIDYVEKFKKKVTLTADTSSSTAYMELSSLTSDDTAVYYCARGKFNYRFAYWGQGTLVTVSS VL: DVVMTQSPPSLLVTLGQPASISCRSSQSLLHSSGNTYLNWLLQRPGQSPQPLIYLVSKLESGVPDRFSGSGSGTDFTLKISGVEAEDVGVYYCMQFTHYPYTFGQGTKLEIK |
| 0.9 | CD2-binding molecule 3 (FcS anti-CD2 IgG2) (antibody, V domains shown, Standard IgG2 framework with V234A, G237A, P238S, H268A, V309L, A330S, P331S; made in CHO-K1 cells) VH: QVQLVQSGAEVQRPGASVKVSCKASGYIFTEYYMYWVRQAPGQGLELVGRIDPEDGSIDYVEKFKKKVTLTADTSSSTAYMELSSLTSDDTAVYYCARGKFNYRFAYWGQGTLVTVSS VL: DVVMTQSPPSLLVTLGQPASISCRSSQSLLHSSGNTYLNWLLQRPGQSPQPLIYLVSKLESGVPDRFSGSGSGTDFTLKISGVEAEDVGVYYCMQFTHYPYTFGQGTKLEIK |
| 1.5 | CD2-binding molecule 2 (Fc-silent (FcS) anti-CD2 IgG1) (antibody, V domains shown, IgG1 with LALA-PG mutations at equivalent sites in siplizumab; made in CHO-K1 cells; also called Fc-silent Siplizumab) VH: QVQLVQSGAEVQRPGASVKVSCKASGYIFTEYYMYWVRQAPGQGLELVGRIDPEDGSIDYVEKFKKKVTLTADTSSSTAYMELSSLTSDDTAVYYCARGKFNYRFAYWGQGTLVTVSS VL: DVVMTQSPPSLLVTLGQPASISCRSSQSLLHSSGNTYLNWLLQRPGQSPQPLIYLVSKLESGVPDRFSGSGSGTDFTLKISGVEAEDVGVYYCMQFTHYPYTFGQGTKLEIK |
| 1.2 | CD2-binding molecule 1 (a deglycosylated CD2-binding molecule) (antibody, V domains shown, Fc N-glycan removed with EndoS2 (GlycINATOR), produced with GlycINATOR (EndoS2)) VH: QVQLVQSGAEVQRPGASVKVSCKASGYIFTEYYMYWVRQAPGQGLELVGRIDPEDGSIDYVEKFKKKVTLTADTSSSTAYMELSSLTSDDTAVYYCARGKFNYRFAYWGQGTLVTVSS VL: DVVMTQSPPSLLVTLGQPASISCRSSQSLLHSSGNTYLNWLLQRPGQSPQPLIYLVSKLESGVPDRFSGSGSGTDFTLKISGVEAEDVGVYYCMQFTHYPYTFGQGTKLEIK |
